Experimental data as given in the supplement of paper PMC9170038.

Test system: K4 kissing-loop RNA reporter
Assay: apparent KD of K4 kissing-loop reporter; higher = weaker reporter binding
Settings: Eterna round: R107
Method: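 RNA-MaP round R107: designed RNA switches with theophylline, tryptophan, arginine or FMN aptamers are transcribed on-chip within common flanks. They are titrated with a labelled K4 kissing-loop RNA reporter in RNA-MaP buffer (100 mM Tris pH 7.5, 80 mM KCl, 4 mM MgCl2), without ligand or with the indicated ligand. Median apparent KD per design.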

[1] = input ligand: theophylline 20 uM
[2] = input ligand: tryptophan 2.4 mM
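Also: bound reporter read as fluorescence of individual clusters on recovered sequencing chips by microscopy, with normalized cluster intensities fitted with a binding model.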

Sequence | apparent KD of K4 kissing-loop reporter (input ligand: FMN 200 uM) [nM] | apparent KD of K4 kissing-loop reporter (input ligand: arginine 13.2 mM) [nM] | apparent KD of K4 kissing-loop reporter (input ligand: none) [nM] | apparent KD of K4 kissing-loop reporter [1] [nM] | apparent KD of K4 kissing-loop reporter [2] [nM]
GCAGACACGCAGUGAUGUUGCGAAACGGAAGGAGCGCGUGAAAACGCAGGUAGGUCGCCGACACAUAAAUUAUAAUUUUGUUUGC [Arginine A K4 14] | 253 | 214 | 246 | 237 | 205
AUUAAUUUCAGAGGAUAUCGUAAUUUUAUUUUAUUUUUUCAUUUAUGCAGUGAUGUUGCAUUUAUUCGAGAAGGCUGAUUUAUAA [JR_SSFMNB_Sub021] | 65.7 | 74.4 | 40.8 | 69.6 | 50.7
CCCGUACCAGUGAUGUUGGUAUGGUCUGAUACCAGUCUGUAGUCGGGCCCUUGGCAGCAGACCCUUGCCAAGGUGACGACUCCGG [Qu] | 128 | 146 | 126 | 131 | 132
CCUAUCUCAUACGAUACCAGUGAAUUUAUGUUUAUUAGCAGUGAUGUUGCGUUCCAAGUACACCCUUGGCAGCGUAUGGGAUAGG [Ex Theophylline B K4 24] | 139 | 168 | 147 | 143 | 113
UGUCAUUGGUCGGCCGCCACUUCAUAUAGAGUGAUGUUCUGAAAGACGGAUCGAAAGAUCUGUCGAAGGACCGGGACCGAUGACU [FiskerMod 12 - Jieux - Same State - Tryptophan B] | 1100 | 810 | 1640 | 1100 | 268
GCCCGGUGAAUCCGCCAAGAUAGACACCGUCGAGGACCGGUACGGCCGCCACUCGAGUACGAGUGAUGUUCGUACGCGGUGUCGA [Onedzate] | 606 | 728 | 657 | 431 | 189
AAUACGAAGCAGUGAUGUUGCUUAUGAGAAGGAGCGCACGAAAGUGCAGGUAGGUCGCUCAGCCAAGUGGACGAAAACGUCCACA [whbob_SS_Arginine_A_sa108] | 96.4 | 116 | 98.4 | 127 | 90.6
CGUGCCCAGCCGGAUACCAGUGACCCGCUGGGAACCGCGGGCCCAGAGUGAUGUUCGGGACACCCUUGGCAGCCGCCUGGGCGGC [#2 Same State - Theophylline B Attempt #12 (HarryS)] | 1380 | 724 | 462 | 440 | 1250
GGAUAGGACGGAGGAUAUGGUAGUGAUGUUACCAAACUGGUUAAACAUGUCAGAAAACUGGCAUGACCAGAAGGUUGUCCUAUCG [FmnBX 27 G10+U75] | 98.2 | 69 | 94.5 | 44.4 | 73.3
AGGAUGUAGUGAUGUUAUAUAAGAAGUAAACGAGGACCGGUACGGCCGCCACUCGAAGCGGCUACUAGCGCGUUGCGAGGUGUGC [ExTryptoA.Ce] | 492 | 384 | 581 | 656 | 378
UGUCAUUGGUCUGAUACCAGUACCCUUGGCAGCCAAGGAGUGAUGUUCCAAGGAUACCAGUGCCCUUGGCAGCAGACCGAUGACU [TheoBS 12 #DoubleAptamer #SwitchBubble] | 920 | 563 | 1120 | 613 | 901
CGCUGGGCGAGUGAUGUUCGCUCACGUGAUACCAGUGCCAUCCAACACCCUUGGCAGCACGCGGGCAGUGAUGUUGUCCUUAGUG [Exclusion Theophylline A GF8] | 127 | 123 | 128 | 125 | 116
AAUAAAAUCACGGCCGCCACUGAUUACCAUAUUAGGAGUGAUGUUCCUAUGACUAUAUAAUUUAACAGGACCGGGUGAAUAUUUA [JR_ExcTryptoB_Sub011] | 105 | 103 | 107 | 106 | 94.3
UAAUUUAUGUCUUUAAUUUUAUAAUCAGAUACCAGUGAUUUAUGACACCCUUGGCAGCUGUAUUGAGUGAUGUUCUUAUACUUAA [JR_Nu_ExcTheophyA_Sub022] | 140 | 167 | 175 | 236 | 99.3
AAGCGUGUGGCGGCCGCCACUAGUCUCCAGUGAUGUUGGAGAGAUCACGUAAGUGAUCUCCGACAUAGGACCGGGCCAUAUGGAA [Same State - Tryptophan B (Freestyle 23)] | 69.1 | 125 | 186 | 443 | 214
UCGCAUCUCAGAAGGAGCGACAGUGAUUCUGAUAGAAAUCUGAGUGAUGUUCAGAACAGCUGUCAGGUAGGUCGCUGAGAUGCGA [Arg B Ex t8] | 813 | 384 | 547 | 413 | 314
GCCGUAGAUUGAAGGAGCGGGCCGUAGUGAUGUUACGCCAAGUUGUCUUUUAUUGAUGUGGCCCAGGUAGGUCGCAAUCUACGGC | 300 | 287 | 311 | 217 | 273
CGCAGUGAUGUUGCGAGUAGCUACAGGGAAGGAGCGCUUUAGUAAGCAGGUAGGUCGCCCACGCAGUGAUGUUGCGUCAUAGGGU [Exclusion Arginine A GF 19] | 118 | 106 | 108 | 109 | 88.4
AUGCGCGCGGCGGCCGCCACUCGCAUGAGAGUGAUGUUCUCGCCGUGCCCGUAAGGGUGCGGUGUGAGGACCGGGCCGGGCUGCG [#2 Same State - Tryptophan B Attempt #20 (HarryS)] | 204 | 107 | 227 | 37.5 | 239
UUAUCACCCUAAGGAUAUAGCUAAGUGAUGUUUAGCUCGUCGCAGGGUAAACACUAGGCCCAAAGGCUAGAAGGUAGCUGGUACC [theeternabot_exclusion_KL_FMN_B_35] | 70.6 | 66.9 | 74 | 81.3 | 69.6
ACCAUCAAAGAUGGCCAGGACACCGCUGAUACCAGAGUGAAAACACUCCCUUGGCAGCAGGUGAGUGAUGUUCACAGUCCAUGGA [Omel KL Theo A SS B v2] | 566 | 422 | 588 | 901 | 361
